The values that follow come from patent US20260070987A1.

To fix the notation:
B1: equine IgG1 G426I (antibody, part only; not given: variable domains, not shown: another chain or arm of the molecule)
constant: ASTTAPKVFALAPGCGTTSDSTVALGCLVSGYFPEPVKVSWNSGSLTSGVHTFPSVLQSSGFYSLSSMVTVPASTWTSETYICNVVHAASNFKVDKRIEPIPDNHQKVCDMSKCPKCPAPELLGGPSVFIFPPNPKDTLMITRTPEVTCVVVDVSQENPDVKFNWYMDGVEVRTATTRPKEEQFNSTYRVVSVLRIQHQDWLSGKEFKCKVNNQALPQPIERTITKTKGRSQEPQVYVLAPHPDELSKSKVSVTCLVKDFYPPEINIEWQSNGQPELETKYSTTQAQQDSDGSYFLYSKLSVDRNRWQQGTTFTCIVMHEALHNHYTQKNVSKNPGK
B2: equine IgG1 G426T (antibody, part only; not given: variable domains, not shown: another chain or arm of the molecule)
constant: ASTTAPKVFALAPGCGTTSDSTVALGCLVSGYFPEPVKVSWNSGSLTSGVHTFPSVLQSSGFYSLSSMVTVPASTWTSETYICNVVHAASNFKVDKRIEPIPDNHQKVCDMSKCPKCPAPELLGGPSVFIFPPNPKDTLMITRTPEVTCVVVDVSQENPDVKFNWYMDGVEVRTATTRPKEEQFNSTYRVVSVLRIQHQDWLSGKEFKCKVNNQALPQPIERTITKTKGRSQEPQVYVLAPHPDELSKSKVSVTCLVKDFYPPEINIEWQSNGQPELETKYSTTQAQQDSDGSYFLYSKLSVDRNRWQQGTTFTCTVMHEALHNHYTQKNVSKNPGK
B3: equine IgG1 G426V (antibody, part only; not given: Variable domains, not shown: another chain or arm of the molecule)
constant: ASTTAPKVFALAPGCGTTSDSTVALGCLVSGYFPEPVKVSWNSGSLTSGVHTFPSVLQSSGFYSLSSMVTVPASTWTSETYICNVVHAASNFKVDKRIEPIPDNHQKVCDMSKCPKCPAPELLGGPSVFIFPPNPKDTLMITRTPEVTCVVVDVSQENPDVKFNWYMDGVEVRTATTRPKEEQFNSTYRVVSVLRIQHQDWLSGKEFKCKVNNQALPQPIERTITKTKGRSQEPQVYVLAPHPDELSKSKVSVTCLVKDFYPPEINIEWQSNGQPELETKYSTTQAQQDSDGSYFLYSKLSVDRNRWQQGTTFTCVVMHEALHNHYTQKNVSKNPGK
B4: equine IgG1 G426K (antibody, part only; not given: Variable domains, not shown: another chain or arm of the molecule)
constant: ASTTAPKVFALAPGCGTTSDSTVALGCLVSGYFPEPVKVSWNSGSLTSGVHTFPSVLQSSGFYSLSSMVTVPASTWTSETYICNVVHAASNFKVDKRIEPIPDNHQKVCDMSKCPKCPAPELLGGPSVFIFPPNPKDTLMITRTPEVTCVVVDVSQENPDVKFNWYMDGVEVRTATTRPKEEQFNSTYRVVSVLRIQHQDWLSGKEFKCKVNNQALPQPIERTITKTKGRSQEPQVYVLAPHPDELSKSKVSVTCLVKDFYPPEINIEWQSNGQPELETKYSTTQAQQDSDGSYFLYSKLSVDRNRWQQGTTFTCKVMHEALHNHYTQKNVSKNPGK
B5: equine IgG1 T286A (antibody, part only; not given: Variable domains, not shown: another chain or arm of the molecule)
constant: ASTTAPKVFALAPGCGTTSDSTVALGCLVSGYFPEPVKVSWNSGSLTSGVHTFPSVLQSSGFYSLSSMVTVPASTWTSETYICNVVHAASNFKVDKRIEPIPDNHQKVCDMSKCPKCPAPELLGGPSVFIFPPNPKDTLMITRTPEVTCVVVDVSQENPDVKFNWYMDGVEVRAATTRPKEEQFNSTYRVVSVLRIQHQDWLSGKEFKCKVNNQALPQPIERTITKTKGRSQEPQVYVLAPHPDELSKSKVSVTCLVKDFYPPEINIEWQSNGQPELETKYSTTQAQQDSDGSYFLYSKLSVDRNRWQQGTTFTCGVMHEALHNHYTQKNVSKNPGK
B6: equine IgG1 G426L (antibody, part only; not given: variable domains, not shown: another chain or arm of the molecule)
constant: ASTTAPKVFALAPGCGTTSDSTVALGCLVSGYFPEPVKVSWNSGSLTSGVHTFPSVLQSSGFYSLSSMVTVPASTWTSETYICNVVHAASNFKVDKRIEPIPDNHQKVCDMSKCPKCPAPELLGGPSVFIFPPNPKDTLMITRTPEVTCVVVDVSQENPDVKFNWYMDGVEVRTATTRPKEEQFNSTYRVVSVLRIQHQDWLSGKEFKCKVNNQALPQPIERTITKTKGRSQEPQVYVLAPHPDELSKSKVSVTCLVKDFYPPEINIEWQSNGQPELETKYSTTQAQQDSDGSYFLYSKLSVDRNRWQQGTTFTCLVMHEALHNHYTQKNVSKNPGK
B7: equine IgG1 G426W (antibody, part only; not given: variable domains, not shown: another chain or arm of the molecule)
constant: ASTTAPKVFALAPGCGTTSDSTVALGCLVSGYFPEPVKVSWNSGSLTSGVHTFPSVLQSSGFYSLSSMVTVPASTWTSETYICNVVHAASNFKVDKRIEPIPDNHQKVCDMSKCPKCPAPELLGGPSVFIFPPNPKDTLMITRTPEVTCVVVDVSQENPDVKFNWYMDGVEVRTATTRPKEEQFNSTYRVVSVLRIQHQDWLSGKEFKCKVNNQALPQPIERTITKTKGRSQEPQVYVLAPHPDELSKSKVSVTCLVKDFYPPEINIEWQSNGQPELETKYSTTQAQQDSDGSYFLYSKLSVDRNRWQQGTTFTCWVMHEALHNHYTQKNVSKNPGK
B8: equine IgG1 G426Q (antibody, part only; not given: variable domains, not shown: another chain or arm of the molecule)
constant: ASTTAPKVFALAPGCGTTSDSTVALGCLVSGYFPEPVKVSWNSGSLTSGVHTFPSVLQSSGFYSLSSMVTVPASTWTSETYICNVVHAASNFKVDKRIEPIPDNHQKVCDMSKCPKCPAPELLGGPSVFIFPPNPKDTLMITRTPEVTCVVVDVSQENPDVKFNWYMDGVEVRTATTRPKEEQFNSTYRVVSVLRIQHQDWLSGKEFKCKVNNQALPQPIERTITKTKGRSQEPQVYVLAPHPDELSKSKVSVTCLVKDFYPPEINIEWQSNGQPELETKYSTTQAQQDSDGSYFLYSKLSVDRNRWQQGTTFTCQVMHEALHNHYTQKNVSKNPGK
B9: equine IgG1 M428A (antibody, part only; not given: variable domains, not shown: another chain or arm of the molecule)
constant: ASTTAPKVFALAPGCGTTSDSTVALGCLVSGYFPEPVKVSWNSGSLTSGVHTFPSVLQSSGFYSLSSMVTVPASTWTSETYICNVVHAASNFKVDKRIEPIPDNHQKVCDMSKCPKCPAPELLGGPSVFIFPPNPKDTLMITRTPEVTCVVVDVSQENPDVKFNWYMDGVEVRTATTRPKEEQFNSTYRVVSVLRIQHQDWLSGKEFKCKVNNQALPQPIERTITKTKGRSQEPQVYVLAPHPDELSKSKVSVTCLVKDFYPPEINIEWQSNGQPELETKYSTTQAQQDSDGSYFLYSKLSVDRNRWQQGTTFTCGVAHEALHNHYTQKNVSKNPGK
B10: equine IgG1 G426M (antibody, part only; not given: variable domains, not shown: another chain or arm of the molecule)
constant: ASTTAPKVFALAPGCGTTSDSTVALGCLVSGYFPEPVKVSWNSGSLTSGVHTFPSVLQSSGFYSLSSMVTVPASTWTSETYICNVVHAASNFKVDKRIEPIPDNHQKVCDMSKCPKCPAPELLGGPSVFIFPPNPKDTLMITRTPEVTCVVVDVSQENPDVKFNWYMDGVEVRTATTRPKEEQFNSTYRVVSVLRIQHQDWLSGKEFKCKVNNQALPQPIERTITKTKGRSQEPQVYVLAPHPDELSKSKVSVTCLVKDFYPPEINIEWQSNGQPELETKYSTTQAQQDSDGSYFLYSKLSVDRNRWQQGTTFTCMVMHEALHNHYTQKNVSKNPGK
B11: equine IgG1 G426S (antibody, part only; not given: variable domains, not shown: another chain or arm of the molecule)
constant: ASTTAPKVFALAPGCGTTSDSTVALGCLVSGYFPEPVKVSWNSGSLTSGVHTFPSVLQSSGFYSLSSMVTVPASTWTSETYICNVVHAASNFKVDKRIEPIPDNHQKVCDMSKCPKCPAPELLGGPSVFIFPPNPKDTLMITRTPEVTCVVVDVSQENPDVKFNWYMDGVEVRTATTRPKEEQFNSTYRVVSVLRIQHQDWLSGKEFKCKVNNQALPQPIERTITKTKGRSQEPQVYVLAPHPDELSKSKVSVTCLVKDFYPPEINIEWQSNGQPELETKYSTTQAQQDSDGSYFLYSKLSVDRNRWQQGTTFTCSVMHEALHNHYTQKNVSKNPGK
B12: equine IgG1 G426R (antibody, part only; not given: variable domains, not shown: another chain or arm of the molecule)
constant: ASTTAPKVFALAPGCGTTSDSTVALGCLVSGYFPEPVKVSWNSGSLTSGVHTFPSVLQSSGFYSLSSMVTVPASTWTSETYICNVVHAASNFKVDKRIEPIPDNHQKVCDMSKCPKCPAPELLGGPSVFIFPPNPKDTLMITRTPEVTCVVVDVSQENPDVKFNWYMDGVEVRTATTRPKEEQFNSTYRVVSVLRIQHQDWLSGKEFKCKVNNQALPQPIERTITKTKGRSQEPQVYVLAPHPDELSKSKVSVTCLVKDFYPPEINIEWQSNGQPELETKYSTTQAQQDSDGSYFLYSKLSVDRNRWQQGTTFTCRVMHEALHNHYTQKNVSKNPGK
B13: equine IgG1 G426P (antibody, part only; not given: variable domains, not shown: another chain or arm of the molecule)
constant: ASTTAPKVFALAPGCGTTSDSTVALGCLVSGYFPEPVKVSWNSGSLTSGVHTFPSVLQSSGFYSLSSMVTVPASTWTSETYICNVVHAASNFKVDKRIEPIPDNHQKVCDMSKCPKCPAPELLGGPSVFIFPPNPKDTLMITRTPEVTCVVVDVSQENPDVKFNWYMDGVEVRTATTRPKEEQFNSTYRVVSVLRIQHQDWLSGKEFKCKVNNQALPQPIERTITKTKGRSQEPQVYVLAPHPDELSKSKVSVTCLVKDFYPPEINIEWQSNGQPELETKYSTTQAQQDSDGSYFLYSKLSVDRNRWQQGTTFTCPVMHEALHNHYTQKNVSKNPGK
B14: equine IgG1 M252Y (antibody, part only; not given: variable domains, not shown: another chain or arm of the molecule)
constant: ASTTAPKVFALAPGCGTTSDSTVALGCLVSGYFPEPVKVSWNSGSLTSGVHTFPSVLQSSGFYSLSSMVTVPASTWTSETYICNVVHAASNFKVDKRIEPIPDNHQKVCDMSKCPKCPAPELLGGPSVFIFPPNPKDTLYITRTPEVTCVVVDVSQENPDVKFNWYMDGVEVRTATTRPKEEQFNSTYRVVSVLRIQHQDWLSGKEFKCKVNNQALPQPIERTITKTKGRSQEPQVYVLAPHPDELSKSKVSVTCLVKDFYPPEINIEWQSNGQPELETKYSTTQAQQDSDGSYFLYSKLSVDRNRWQQGTTFTCGVMHEALHNHYTQKNVSKNPGK
B15: equine IgG1 G426N (antibody, part only; not given: variable domains, not shown: another chain or arm of the molecule)
constant: ASTTAPKVFALAPGCGTTSDSTVALGCLVSGYFPEPVKVSWNSGSLTSGVHTFPSVLQSSGFYSLSSMVTVPASTWTSETYICNVVHAASNFKVDKRIEPIPDNHQKVCDMSKCPKCPAPELLGGPSVFIFPPNPKDTLMITRTPEVTCVVVDVSQENPDVKFNWYMDGVEVRTATTRPKEEQFNSTYRVVSVLRIQHQDWLSGKEFKCKVNNQALPQPIERTITKTKGRSQEPQVYVLAPHPDELSKSKVSVTCLVKDFYPPEINIEWQSNGQPELETKYSTTQAQQDSDGSYFLYSKLSVDRNRWQQGTTFTCNVMHEALHNHYTQKNVSKNPGK
B16: equine IgG1 G426Y (antibody, part only; not given: variable domains, not shown: another chain or arm of the molecule)
constant: ASTTAPKVFALAPGCGTTSDSTVALGCLVSGYFPEPVKVSWNSGSLTSGVHTFPSVLQSSGFYSLSSMVTVPASTWTSETYICNVVHAASNFKVDKRIEPIPDNHQKVCDMSKCPKCPAPELLGGPSVFIFPPNPKDTLMITRTPEVTCVVVDVSQENPDVKFNWYMDGVEVRTATTRPKEEQFNSTYRVVSVLRIQHQDWLSGKEFKCKVNNQALPQPIERTITKTKGRSQEPQVYVLAPHPDELSKSKVSVTCLVKDFYPPEINIEWQSNGQPELETKYSTTQAQQDSDGSYFLYSKLSVDRNRWQQGTTFTCYVMHEALHNHYTQKNVSKNPGK

This experiment concerns the target equine FcRn (large alpha subunit p51) / equine beta-2-microglobulin complex, biotinylated (equine) (UniProt P30441). Nature of the experiment: SPR (Biacore), pH 6. For orientation: Surface plasmon resonance follows binding to a sensor surface in real time, without labels.
Sequence of UniProt P30441 (P30441 21-118, one chain of several): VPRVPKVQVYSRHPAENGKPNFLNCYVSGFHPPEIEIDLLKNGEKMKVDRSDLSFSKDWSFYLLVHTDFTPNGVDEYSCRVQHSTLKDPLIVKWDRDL
Usually Kd stands for the concentration at which binding is half-saturated. High values mean weaker binding, low ones tighter binding. B1 yielded a Kd of 9.47 nM.
The value for B2 was 9.73 nM.
The value for B3 was 8.79 nM; that for B4 was 9.3 nM; that for B5 was 18.5 nM.
The value for B6 was 9.61 nM; that for B7 was 14.7 nM; that for B8 was 9.01 nM.
Regarding B9, the Kd is 76 nM. This Kd lies about 8.4-fold higher than the previous one.
Next, B10: 9.09 nM.
Next, B11: 8.97 nM; B12: 10.3 nM.
The value for B13 was 23.9 nM.
B14 displayed a Kd of 19.3 nM.
Next, B15: 10.3 nM.
The value for B16 was 11.9 nM.
